According to US20050261196A1 (UNIVERSITY OF CHICAGO, published 2005):
Where no end group is shown, it is not given here. [ ]: non-standard residue; d: D form.

What was measured:
D-PIK(reversed) = tested on: T1, D-PIK(reversed)
T1 sequence: KRRYKYKKR

D-PIK = tested on: T2, D-PIK
T2 sequence: RKKYKYRRK

D-PIK(int.) = tested on: T3, D-PIK(int.)
T3 sequence: RKKYKYRRK

[1] = target: myosin light chain kinase (215 kDa MLCK expressed by Caco-2 cells) (UniProt Q15746 1-1914, limits assumed); assay: cell-based or functional assay
myosin light chain kinase (215 kDa MLCK expressed by Caco-2 cells), sequence (Q15746 whole entry): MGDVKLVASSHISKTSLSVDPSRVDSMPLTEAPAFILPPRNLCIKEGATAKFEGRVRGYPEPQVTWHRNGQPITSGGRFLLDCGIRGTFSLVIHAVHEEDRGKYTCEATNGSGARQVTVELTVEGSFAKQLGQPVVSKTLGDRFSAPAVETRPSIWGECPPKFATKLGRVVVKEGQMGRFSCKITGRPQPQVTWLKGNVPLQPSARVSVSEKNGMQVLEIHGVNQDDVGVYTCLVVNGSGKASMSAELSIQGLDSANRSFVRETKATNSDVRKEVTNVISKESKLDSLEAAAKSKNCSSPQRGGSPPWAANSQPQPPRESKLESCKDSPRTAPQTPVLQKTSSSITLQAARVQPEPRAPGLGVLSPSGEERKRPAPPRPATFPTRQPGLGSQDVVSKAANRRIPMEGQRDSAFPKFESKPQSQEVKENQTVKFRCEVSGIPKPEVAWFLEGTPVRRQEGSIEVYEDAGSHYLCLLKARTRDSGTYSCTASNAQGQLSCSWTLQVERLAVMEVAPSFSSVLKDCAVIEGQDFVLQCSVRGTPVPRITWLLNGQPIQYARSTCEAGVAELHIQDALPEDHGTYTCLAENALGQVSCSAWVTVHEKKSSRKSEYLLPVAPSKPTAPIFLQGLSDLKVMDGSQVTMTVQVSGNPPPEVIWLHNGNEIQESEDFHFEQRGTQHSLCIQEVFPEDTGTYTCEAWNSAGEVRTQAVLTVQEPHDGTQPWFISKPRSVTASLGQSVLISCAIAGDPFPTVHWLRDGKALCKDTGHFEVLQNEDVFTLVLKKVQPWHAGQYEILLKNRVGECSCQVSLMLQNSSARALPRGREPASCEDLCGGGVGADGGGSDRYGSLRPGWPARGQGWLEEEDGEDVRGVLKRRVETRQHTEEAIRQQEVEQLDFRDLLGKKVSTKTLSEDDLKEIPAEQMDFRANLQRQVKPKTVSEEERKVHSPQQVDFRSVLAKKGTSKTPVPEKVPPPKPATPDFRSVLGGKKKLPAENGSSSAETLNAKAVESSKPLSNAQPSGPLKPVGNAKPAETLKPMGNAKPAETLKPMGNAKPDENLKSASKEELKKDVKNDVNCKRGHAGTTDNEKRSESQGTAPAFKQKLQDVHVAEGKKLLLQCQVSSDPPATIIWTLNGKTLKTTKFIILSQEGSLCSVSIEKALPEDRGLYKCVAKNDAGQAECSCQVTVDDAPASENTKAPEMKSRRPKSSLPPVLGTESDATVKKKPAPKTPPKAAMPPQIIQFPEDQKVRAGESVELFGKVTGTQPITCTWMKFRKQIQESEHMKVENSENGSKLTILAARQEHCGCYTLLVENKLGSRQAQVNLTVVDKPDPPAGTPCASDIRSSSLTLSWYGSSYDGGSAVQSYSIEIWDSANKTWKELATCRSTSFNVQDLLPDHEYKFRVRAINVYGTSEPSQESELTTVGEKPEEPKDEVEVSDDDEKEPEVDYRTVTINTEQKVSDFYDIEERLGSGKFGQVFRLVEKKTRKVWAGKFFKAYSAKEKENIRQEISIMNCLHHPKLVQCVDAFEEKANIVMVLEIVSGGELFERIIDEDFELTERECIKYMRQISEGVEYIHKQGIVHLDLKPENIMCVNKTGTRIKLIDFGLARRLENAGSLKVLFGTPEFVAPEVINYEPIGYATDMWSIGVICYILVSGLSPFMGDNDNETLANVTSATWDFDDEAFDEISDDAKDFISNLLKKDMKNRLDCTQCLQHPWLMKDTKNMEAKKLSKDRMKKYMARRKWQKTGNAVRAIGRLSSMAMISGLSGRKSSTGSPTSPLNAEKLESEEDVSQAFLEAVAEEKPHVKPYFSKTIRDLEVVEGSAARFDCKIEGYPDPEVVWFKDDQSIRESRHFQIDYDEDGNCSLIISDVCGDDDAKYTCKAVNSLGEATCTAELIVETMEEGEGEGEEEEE

Row | Molecule | CaMPKII activity (phosphorylation of plate-bound pseudo-substrate peptide, anti-phosphoserine ELISA) (D-PIK(reversed)) | CaMPKII activity (phosphorylation of plate-bound pseudo-substrate peptide, anti-phosphoserine ELISA) (D-PIK) | CaMPKII activity (phosphorylation of plate-bound pseudo-substrate peptide, anti-phosphoserine ELISA) (D-PIK(int.)) | Δ TER (elevation in transepithelial resistance of Caco-2 monolayers, 500 µM peptide, one hour) [1] [%]
1 | Calcium/calmodulin dependent protein kinase II (CaMPKII) | Neither D-PIK nor D-PIK(reversed) nor D-PIK(int) demonstrated striking inhibitory effects toward PKA or CaMPKII at concentrations up to 5 mM | Neither D-PIK nor D-PIK(reversed) nor D-PIK(int) demonstrated striking inhibitory effects toward PKA or CaMPKII at concentrations up to 5 mM | Neither D-PIK nor D-PIK(reversed) nor D-PIK(int) demonstrated striking inhibitory effects toward PKA or CaMPKII at concentrations up to 5 mM | –
2 | [dR][dK][dK][dY][dK][dY][dR][dR][dK]-NH2 [D-PIK] | – | – | – | 41
3 | [dK][dR][dR][dY][dK][dY][dK][dK][dR]-NH2 [D-PIK(reversed)] | – | – | – | 50
4 | RKKYKYRRK-NH2 (not fully specified; printed as Arg-Lys-Lys-Tyr-Lys-Tyr-Arg-Arg-Lys) [PIK (SEQ ID NO: 12)] | – | – | – | 45
5 | RKK[dY][dK][dY]RRK-NH2 [D-PIK(int.)] | – | – | – | 47
